Data: publication PMC5760697, “Loss of the Mitochondrial Fatty Acid β-Oxidation Protein Medium-Chain Acyl-Coenzyme A Dehydrogenase Disrupts Oxidative Phosphorylation Protein Complex Stability and Function” (Scientific Reports, 2018)

Experiments:
[1] = molecular target: OXPHOS complex III dimer (human (endogenous in fibroblasts, 143B and HepG2)) (UniProt P00156); assay: native gel or EMSA; mtDNA-encoded proteins radiolabeled with [35S]-methionine/cysteine in 143B cells in the presence of cycloheximide, 2 h pulse, chase 0, 3 or 24 h; mitochondria isolated, BN-PAGE or 2D native-PAGE
[2] = molecular target: OXPHOS complex III dimer (human (endogenous in fibroblasts, 143B and HepG2)) (UniProt P00156); assay: native gel or EMSA; BN-PAGE and Western blot of isolated mitochondria (fibroblasts, 143B cells) solubilised in 1% (v/v) Triton X-100; anti-UQCRC1 antibody
[3] = molecular target: the molecule itself; assay: native gel or EMSA; BN-PAGE and Western blot of isolated mitochondria (fibroblasts, 143B cells) solubilised in 1% (w/v) digitonin; anti-MCAD or anti-NDUFA9 antibody
[4] = molecular target: the molecule itself; assay: native gel or EMSA; 35S-labelled in vitro translated protein incubated at 37 °C with freshly isolated 143B mitochondria (5 to 60 min), mitochondria solubilised in 1% (v/v) TX-100 or 1% (w/v) digitonin, BN-PAGE

Molecule: OXPHOS complex III dimer (from UniProt P00156 1-380; P31930 35-480; P22695 15-453)
- stoichiometry N [1]: 2
- stoichiometry N [2]: 2

B1: Medium-chain acyl-Coenzyme A dehydrogenase (enzyme, human (endogenous in 143B and HepG2), UniProt P11310 26-421, looked up)
chain: KANRQREPGLGFSFEFTEQQKEFQATARKFAREEIIPVAAEYDKTGEYPVPLIRRAWELGLMNTHIPENCGGLGLGTFDACLISEELAYGCTGVQTAIEGNSLGQMPIIIAGNDQQKKKYLGRMTEEPLMCAYCVTEPGAGSDVAGIKTKAEKKGDEYIINGQKMWITNGGKANWYFLLARSDPDPKAPANKAFTGFIVEADTPGIQIGRKELNMGQRCSDTRGIVFEDVKVPKENVLIGDGAGFKVAMGAFDKTRPVVAAGAVGLAQRALDEATKYALERKTFGKLLVEHQAISFMLAEMAMKVELARMSYQRAAWEVDSGRRNTYYASIAKAFAGDIANQLATDAVQILGGNGFNTEYPVEKLMRDAKIYQIYEGTSQIQRLIVAREHIDKYKN
notes: Medium-chain acyl-CoA dehydrogenase (MCAD, EC 1.3.8.7); 421 amino acid precursor, processed in the mitochondrial matrix into a mature 396 amino acid (43.6 kDa) protein; also called MCAD; Medium-chain acyl-CoA dehydrogenase; source: endogenous, mitochondria isolated from 143B cells or HepG2 cells, solubilised in detergent
- stoichiometry N [3]: 4

B2: Medium-chain acyl-Coenzyme A dehydrogenase (enzyme, UniProt P11310 26-421, looked up)
chain: B1 chain
modifications: [35S]-methionine/cysteine
notes: MCAD cDNA translated as the precursor; after import a proteinase K resistant mature form is seen; 421 amino acid precursor, mature 396 amino acids; Imported into mitochondria that hold endogenous MCAD, so the labelled ~175 kDa tetramer may be mixed with endogenous chains; also called MCAD; radiolabeled MCAD; source: in vitro translated (pGEM4Z, TnT Coupled Reticulocyte Lysate System), imported …
- stoichiometry N [4]: 4
